# Laboratory results reported in IntAct's records for PubMed 17588514.
# B1: Replication restart protein PriB (Escherichia coli (strain K12)), P07013 (parent)
# chain: MTNRLVLSGTVCRAPLRKVSPSGIPHCQFVLEHRSVQEEAGFHRQAWCQMPVIVSGHENQAITHSITVGSRITVQGFISCHKAKNGLSKMVLHAEQIELIDSGD
# partner: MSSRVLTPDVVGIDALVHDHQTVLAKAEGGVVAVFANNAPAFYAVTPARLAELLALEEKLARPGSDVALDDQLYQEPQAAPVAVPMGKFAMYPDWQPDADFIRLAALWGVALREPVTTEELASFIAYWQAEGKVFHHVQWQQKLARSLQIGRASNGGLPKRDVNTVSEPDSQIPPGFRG
# Variants of: B1
# Settings: with dnat_ecoli dnaT
row,Variant,effect of a mutation on the interaction
1,W47A;K82A,decreasing interaction
2,Q45A,increasing interaction
